Measured values as given in publication PMC7615752, “The histone chaperone SPT2 regulates chromatin structure and function in Metazoa”.

Target: T1, HsSPT2 WT (Homo sapiens, UniProt Q68D10 1-685)
T1 sequence: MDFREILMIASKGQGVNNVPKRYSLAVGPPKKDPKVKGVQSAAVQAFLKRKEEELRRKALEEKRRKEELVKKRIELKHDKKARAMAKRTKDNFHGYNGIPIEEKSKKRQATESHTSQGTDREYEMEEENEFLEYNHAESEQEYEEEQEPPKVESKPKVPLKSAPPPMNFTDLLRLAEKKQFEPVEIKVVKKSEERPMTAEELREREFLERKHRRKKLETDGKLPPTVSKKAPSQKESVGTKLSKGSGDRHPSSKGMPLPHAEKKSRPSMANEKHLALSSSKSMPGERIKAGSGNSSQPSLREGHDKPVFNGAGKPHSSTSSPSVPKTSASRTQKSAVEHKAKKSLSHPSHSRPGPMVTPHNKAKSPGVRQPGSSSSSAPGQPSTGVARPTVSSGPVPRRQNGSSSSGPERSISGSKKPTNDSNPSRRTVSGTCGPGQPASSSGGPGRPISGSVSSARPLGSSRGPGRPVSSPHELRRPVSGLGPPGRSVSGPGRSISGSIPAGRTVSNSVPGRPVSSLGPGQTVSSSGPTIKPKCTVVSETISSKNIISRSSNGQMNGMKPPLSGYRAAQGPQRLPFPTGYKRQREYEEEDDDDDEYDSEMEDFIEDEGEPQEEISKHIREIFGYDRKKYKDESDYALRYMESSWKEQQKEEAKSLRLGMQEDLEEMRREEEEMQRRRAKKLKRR
Experiment: EMSA; 1 mM EDTA; 10 nM DNA; 25 mM Tris-HCl pH 8.0, 55 mM NaCl, 1 mM EDTA, 1 mM DTT, 0.1 mg/ml BSA, 1% glycerol, 37 C 15 min; native 8% PAGE
Conditions: protein: recombinant; tags: His6; label: 5'-32P; four-way junction of 4 x 40 nt strands, each arm 20 bp

B1: synthetic cruciform DNA (four-way Holliday junction J3b/J3h/J3r/J3x(40)) (structured_DNA)
DNA 1: AGGGATCCGTCCTAGCAAGGGGCTGCTACCGGAAGCTTAC
DNA 2: GTAAGCTTCCGGTAGCAGCCTGAGCGGTGGTTGAATTCAC
DNA 3: GTGAATTCAACCACCGCTCAACTCAACTGCAGTCTAGAAC
DNA 4: GTTCTAGACTGCAGTTGAGTCCTTGCTAGGACGGATCCCT
binding result: binds
